Assay results: patent publication US5466669A, “Immunostimulatory agent” (Morinaga Milk Industry Co., Ltd., priority 1993, dated 1995)

What was measured:
Type in all cases: cell-based
[1] = tested on: rat peritoneal mast cells; test: Test 1: histamine release from rat peritoneal mast cells induced by calcium ionophore A23187; conditions: for Histamine release (Relative %): A23187 5 μM, control (saline) = 100; for activity to promote the release of histamine from mast cells induced by A23187 (in words): 1 to 100 ppm
Protocol: This test was performed to study the activity of the peptide of the present invention to promote the release of histamine from rat peritoneal mast cells induced by the calcium ionophore A23187.
Peritoneal cells were collected from Wistar rats after intraperitoneal injection of phosphate-buffered saline (consisting of 120 mM NaCl, 10 mM Na2 PO4, 3 mM KH2 PO4, pH 7.4). Their abdoments were massaged and the buffer containing the cells was recovered. The cells were centrifuged at 300×g for 15 min and washed twice with phosphate-buffered saline. The cells from several rats were pooled for use in the experiments.
Rat peritoneal cells containing about 1×10^5 mast cells per ml were used as the target cells. A 500 μl volume of the cell suspension was incubated with 100 μl volume of the test substance [purified peptide obtained by the method as in Example 1, or human lactoferrin (Sigma Chemical Co.), or bovine lactoferrin (Morinaga Milk industry Co.)] at 37° C. for 3O min. Thereafter, histamine release from the mast cells was induced by the addition of calcium ionophore A23187 (Sigma Chemical Co.) at a final concentration of 5 μM. After 10 min of incubation the cells were centrifuged at 300×g for 15 min and the supernatant was removed and deproteinized by the addition of 2 ml of HClO4 (2%). The deproteinized sample was then centrifuged at 2000×g for 20 min and the histamine content in the supernatant was determined by the fluorophotometric analyser technique (AutoAnalyzer: Technikon). Cells in the presence of phosphate-buffered saline served as control.

[2] = tested on: rat peritoneal mast cells; test: Test 2: histamine release from rat peritoneal mast cells induced by α-toxin-producing Staphylococcus aureus cells; conditions: for Histamine release (Relative %): S. aureus 121 about 1.0×10^8 cells per ml, control (saline) = 100; for activity to promote the release of histamine from mast cells induced by α-toxin-producing Staphylococcus aureus cells (in words): 1 to 100 ppm
Protocol: This test was performed to study the activity of the peptide of the present invention to promote the release of histamine from rat peritoneal mast cells induced by α-toxin-producing Staphylococcus aureus cells.
Staphylococcus aureus 121, an α-toxin-producing strain, was cultured overnight in Brain Heart Infusion broth at 37° C. The bacterial cells were collected by centrifugation at 4000×g for 20 min, washed with phosphate-buffered saline, and suspended in the same buffer for use in the experiment. Rat peritoneal cells were prepared as in Test 1.
The same method as in Test 1 was used, except histamine release from the mast cells was induced by the addition of α-toxin-producing Staphylococcus aureus cells at a final concentration of about 1.0×10^8 cells per ml.

[3] = tested on: human polymorphonuclear neutrophils; test: Test 3: leukotriene release from human polymorphonuclear neutrophils induced by calcium ionophore A23187; conditions: for Leukotriene released (ng) B4 / Leukotriene released (ng) C4 / Leukotriene released (ng) 20-COOH / Leukotriene released (ng) 20-OH: A23187 5 μM; for Leukotriene released (ng) B4: saline control 12; for Leukotriene released (ng) C4: saline control 18; for Leukotriene released (ng) 20-COOH: saline control 31; for Leukotriene released (ng) 20-OH: saline control 55; for Leukotriene released (ng) (Total B4): sum of B4, 20-OH and 20-COOH, saline control 98; for activity to promote the release of leukotriene B4 from polymorphonuclear neutrophils (in words): 1 to 100 ppm
Protocol: This test was performed to study the activity of the peptide of the present invention to promote the release of leukotriene B4 from human polymorphonuclear neutrophils induced by the calcium ionophore A23187.
Human polymorphonuclear neutrophils were prepared by fractionation of leukocytes from heparinized blood of healthy donors on a Ficoll-metrizoategradient followed by dextran sedimentation. The cells were centrifuged at 300×g, and washed three times with phosphate-buffered saline, after which less than 2% of the platelets remained. Erythrocytes were removed by exposing the cells to hypotonic conditions. The purity of the polymorphonuclear neutrophil fraction used was greater than 97% as confirmed by light microscopy.
For analysis of leukotriene release, human neutrophils suspended in phosphate-buffered saline at approximately 1×10^7 cells per ml were used as the target cells. The cells were incubated for 30 min in the presence of test substance [(purified peptide obtained by the method as in Example 1, or human lactoferrin (Sigma Chemical Co.), or bovine lactoferrin (Morinaga Milk Industry Co.)]. Leukotriene release from the neutrophils was then induced by the addition of calcium ionophore A23187 (Sigma chemical Co.) at a final concentration of 5 μM. After 30 min, the supernatants of the stimulated cells were deproteinized by addition of 2 ml of methanol-acetonitrile (1:1) overlaid with nitrogen and frozen for 12 h at -70° C. After centrifugation at 1000×g for 15 min the supernatant was evaporated to dryness in a freeze dryer, suspended in 0.5 ml of methanol-water (30:70), overlaid with nitrogen, and stored overnight at -70° C. The samples were centrifuged at 1000×g and the supernatant was assayed for the presence of leukotrienes by high pressure liquid chromatography using a reverse-phase column of Nucleosil (C18; 5 μm particles) at a column temperature of 40° C. The solvent system was a mixture of phosphate buffer (17 mM K2 HPO4 containing 0.05% EDTA), acetonitrile, and methanol (50:30:20) adjusted to pH 5.0 with phosphoric acid. The absorbance at 280 nm of the column effluent was monitored and recorded. The concentration of each eluted leukotriene was determined from the peak area by means of a computing integrator. The leukotrienes were identified from their retention times with reference to known standards. The minimum detectable quantity was 1 ng in each instance.

Row | Molecule | Histamine release (Relative %) ([1]; 1 ppm test substance) | activity to promote the release of histamine from mast cells induced by A23187 (in words) [1] | Histamine release (Relative %) ([1]; 10 ppm test substance) | Histamine release (Relative %) ([1]; 100 ppm test substance) | Histamine release (Relative %) ([2]; 1 ppm test substance) | activity to promote the release of histamine from mast cells induced by α-toxin-producing Staphylococcus aureus cells (in words) [2] | Histamine release (Relative %) ([2]; 10 ppm test substance) | Histamine release (Relative %) ([2]; 100 ppm test substance) | Leukotriene released (ng) B4 ([3]; 1 ppm test substance) | Leukotriene released (ng) C4 ([3]; 1 ppm test substance) | Leukotriene released (ng) 20-COOH ([3]; 1 ppm test substance) | Leukotriene released (ng) 20-OH ([3]; 1 ppm test substance) | Leukotriene released (ng) (Total B4) ([3]; 1 ppm test substance) | activity to promote the release of leukotriene B4 from polymorphonuclear neutrophils (in words) [3] | Leukotriene released (ng) B4 ([3]; 10 ppm test substance) | Leukotriene released (ng) C4 ([3]; 10 ppm test substance) | Leukotriene released (ng) 20-COOH ([3]; 10 ppm test substance) | Leukotriene released (ng) 20-OH ([3]; 10 ppm test substance) | Leukotriene released (ng) (Total B4) ([3]; 10 ppm test substance) | Leukotriene released (ng) B4 ([3]; 100 ppm test substance) | other results
1 | lactoferrin, human: human lactoferrin (Sigma Chemical Co.) (protein, UniProt P02788 20-710, looked up) Lactotransferrin: GRRRSVQWCAVSQPEATKCFQWQRNMRKVRGPPVSCIKRDSPIQCIQAIAENRADAVTLDGGFIYEAGLAPYKLRPVAAEVYGTERQPRTHYYAVAVVKKGGSFQLNELQGLKSCHTGLRRTAGWNVPIGTLRPFLNWTGPPEPIEAAVARFFSASCVPGADKGQFPNLCRLCAGTGENKCAFSSQEPYFSYSGAFKCLRDGAGDVAFIRESTVFEDLSDEAERDEYELLCPDNTRKPVDKFKDCHLARVPSHAVVARSVNGKEDAIWNLLRQAQEKFGKDKSPKFQLFGSPSGQKDLLFKDSAIGFSRVPPRIDSGLYLGSGYFTAIQNLRKSEEEVAARRARVVWCAVGEQELRKCNQWSGLSEGSVTCSSASTTEDCIALVLKGEADAMSLDGGYVYTAGKCGLVPVLAENYKSQQSSDPDPNCVDRPVEGYLAVAVVRRSDTSLTWNSVKGKKSCHTAVDRTAGWNIPMGLLFNQTGSCKFDEYFSQSCAPGSDPRSNLCALCIGDEQGENKCVPNSNERYYGYTGAFRCLAENAGDVAFVKDVTVLQNTDGNNNEAWAKDLKLADFALLCLDGKRKPVTEARSCHLAMAPNHAVVSRMDKVERLKQVLLHQQAKFGRNGSDCPDKFCLFQSETKNLLFNDNTECLARLHGKTTYEKYLGPQYVAGITNLKKCSTSPLLEACEFLRK | 115 ± 20 Relative % | little, if any, such activity | 110 ± 10 Relative % | 100 ± 10 Relative % | 180 ± 5 Relative % | little, if any, such activity | 115 ± 15 Relative % | 120 ± 20 Relative % | 11 ng | 12 ng | 41 ng | 80 ng | 131 ng | little, if any, such activity | 10 ng | 13 ng | 26 ng | 50 ng | 86 ng | 10 ng | Leukotriene released (ng) C4 ([3]; 100 ppm test substance): 17 ng; Leukotriene released (ng) 20-COOH ([3]; 100 ppm test substance): 26 ng; Leukotriene released (ng) 20-OH ([3]; 100 ppm test substance): 42 ng; Leukotriene released (ng) (Total B4) ([3]; 100 ppm test substance): 76 ng
2 | lactoferrin, bovine: bovine lactoferrin (Morinaga Milk industry Co.) (protein, UniProt P24627 20-708, looked up) Lactotransferrin: APRKNVRWCTISQPEWFKCRRWQWRMKKLGAPSITCVRRAFALECIRAIAEKKADAVTLDGGMVFEAGRDPYKLRPVAAEIYGTKESPQTHYYAVAVVKKGSNFQLDQLQGRKSCHTGLGRSAGWIIPMGILRPYLSWTESLEPLQGAVAKFFSASCVPCIDRQAYPNLCQLCKGEGENQCACSSREPYFGYSGAFKCLQDGAGDVAFVKETTVFENLPEKADRDQYELLCLNNSRAPVDAFKECHLAQVPSHAVVARSVDGKEDLIWKLLSKAQEKFGKNKSRSFQLFGSPPGQRDLLFKDSALGFLRIPSKVDSALYLGSRYLTTLKNLRETAEEVKARYTRVVWCAVGPEEQKKCQQWSQQSGQNVTCATASTTDDCIVLVLKGEADALNLDGGYIYTAGKCGLVPVLAENRKSSKHSSLDCVLRPTEGYLAVAVVKKANEGLTWNSLKDKKSCHTAVDRTAGWNIPMGLIVNQTGSCAFDEFFSQSCAPGADPKSRLCALCAGDDQGLDKCVPNSKEKYYGYTGAFRCLAEDVGDVAFVKNDTVWENTNGESTADWAKNLNREDFRLLCLDGTRKPVTEAQSCHLAVAPNHAVVSRSDRAAHVKQVLLHQQALFGKNGKNCPDKFCLFKSETKNLLFNDNTECLAKLGGRPTYEEYLGTEYVTAIANLKKCSTSPLLEACAFLTR | 105 ± 25 Relative % | little, if any, such activity | 110 ± 20 Relative % | 125 ± 25 Relative % | 150 ± 10 Relative % | little, if any, such activity | 160 ± 10 Relative % | 110 ± 15 Relative % | 9 ng | 17 ng | 41 ng | 50 ng | 100 ng | little, if any, such activity | 11 ng | 15 ng | 36 ng | 60 ng | 107 ng | 11 ng | Leukotriene released (ng) C4 ([3]; 100 ppm test substance): 15 ng; Leukotriene released (ng) 20-COOH ([3]; 100 ppm test substance): 35 ng; Leukotriene released (ng) 20-OH ([3]; 100 ppm test substance): 59 ng; Leukotriene released (ng) (Total B4) ([3]; 100 ppm test substance): 105 ng
